How the values were obtained:
[1] = target: GnRH receptor (GnRHR or LHRHR) (UniProt P30968); experiment: cell-based or functional assay
[2] = target: bradykinin receptor 2 (BDKRB2) (UniProt P30411); experiment: cell-based or functional assay
[3] = target: melanocortin receptor 1 (MC1R) (UniProt Q01726); experiment: cell-based or functional assay
[4] = target: melanocortin receptor 4 (MC4R) (UniProt P32245); experiment: cell-based or functional assay
[5] = target: PTH receptor 1 (PTHR1) (UniProt Q03431); experiment: cell-based or functional assay
[6] = target: FITC-labled GnRH molecule (a peptide) (UniProt P01148); experiment: Centricon filter release assay: FITC-GnRH that passed into the lower chamber with nongel-forming peptide at 1 mg/100 ml (control without carrier 72.50)
[7] = target: FITC-labled GnRH molecule (a peptide) (UniProt P01148); experiment: Centricon filter release assay: FITC-GnRH that passed into the lower chamber with nongel-forming peptide at 1 mg/10 ml (control without carrier 72.50)
[8] = target: kappa opioid receptor (OPRK1) (UniProt P41145); experiment: cell-based or functional assay
kappa opioid receptor (OPRK1), sequence (P41145 whole entry): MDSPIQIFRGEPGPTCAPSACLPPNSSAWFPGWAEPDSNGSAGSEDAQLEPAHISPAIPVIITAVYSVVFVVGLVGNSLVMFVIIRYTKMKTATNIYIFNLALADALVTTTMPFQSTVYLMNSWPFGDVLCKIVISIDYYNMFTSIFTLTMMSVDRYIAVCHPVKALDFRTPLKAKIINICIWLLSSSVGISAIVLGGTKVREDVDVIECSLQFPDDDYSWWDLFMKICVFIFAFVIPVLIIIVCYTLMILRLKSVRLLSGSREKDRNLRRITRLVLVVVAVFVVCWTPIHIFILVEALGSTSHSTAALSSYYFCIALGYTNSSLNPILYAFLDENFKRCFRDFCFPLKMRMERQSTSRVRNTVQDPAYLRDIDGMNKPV

bradykinin receptor 2 (BDKRB2), sequence (P30411 whole entry): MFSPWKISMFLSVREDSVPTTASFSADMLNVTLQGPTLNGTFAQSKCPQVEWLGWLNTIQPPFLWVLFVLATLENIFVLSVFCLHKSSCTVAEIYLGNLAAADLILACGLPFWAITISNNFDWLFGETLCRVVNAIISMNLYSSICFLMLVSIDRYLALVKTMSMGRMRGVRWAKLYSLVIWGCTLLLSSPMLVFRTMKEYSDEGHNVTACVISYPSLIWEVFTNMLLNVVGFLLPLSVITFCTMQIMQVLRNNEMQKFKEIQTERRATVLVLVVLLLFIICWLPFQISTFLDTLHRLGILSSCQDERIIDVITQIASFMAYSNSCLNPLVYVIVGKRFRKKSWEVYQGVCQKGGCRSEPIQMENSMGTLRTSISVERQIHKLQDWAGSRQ
melanocortin receptor 4 (MC4R), sequence (P32245 whole entry): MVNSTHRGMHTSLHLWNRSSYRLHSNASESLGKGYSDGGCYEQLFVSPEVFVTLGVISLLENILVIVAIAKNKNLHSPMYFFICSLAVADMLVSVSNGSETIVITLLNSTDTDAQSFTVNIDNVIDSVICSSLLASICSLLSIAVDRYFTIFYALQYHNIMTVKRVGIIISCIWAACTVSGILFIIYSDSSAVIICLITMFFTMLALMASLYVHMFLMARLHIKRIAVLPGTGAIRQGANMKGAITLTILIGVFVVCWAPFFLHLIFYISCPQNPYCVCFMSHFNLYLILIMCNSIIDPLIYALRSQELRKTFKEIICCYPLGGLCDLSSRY
GnRH receptor (GnRHR or LHRHR), sequence (P30968 whole entry): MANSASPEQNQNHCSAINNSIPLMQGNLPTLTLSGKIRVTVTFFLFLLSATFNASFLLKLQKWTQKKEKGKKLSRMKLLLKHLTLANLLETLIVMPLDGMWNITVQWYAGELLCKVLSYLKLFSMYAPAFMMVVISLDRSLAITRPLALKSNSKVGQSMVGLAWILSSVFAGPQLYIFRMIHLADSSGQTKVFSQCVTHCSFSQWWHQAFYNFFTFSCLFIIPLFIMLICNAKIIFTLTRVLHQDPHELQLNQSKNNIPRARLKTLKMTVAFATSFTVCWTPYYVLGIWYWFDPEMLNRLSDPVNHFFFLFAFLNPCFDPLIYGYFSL
melanocortin receptor 1 (MC1R), sequence (Q01726 whole entry): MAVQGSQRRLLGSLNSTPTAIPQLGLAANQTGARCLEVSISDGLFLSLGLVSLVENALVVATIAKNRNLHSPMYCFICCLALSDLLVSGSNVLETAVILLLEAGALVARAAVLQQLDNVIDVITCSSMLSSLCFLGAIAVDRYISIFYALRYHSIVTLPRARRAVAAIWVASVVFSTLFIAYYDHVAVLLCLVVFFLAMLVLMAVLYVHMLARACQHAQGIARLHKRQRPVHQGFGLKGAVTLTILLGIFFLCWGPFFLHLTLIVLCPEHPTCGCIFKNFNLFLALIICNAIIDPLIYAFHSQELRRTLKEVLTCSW
PTH receptor 1 (PTHR1), sequence (Q03431 27-593 limits assumed): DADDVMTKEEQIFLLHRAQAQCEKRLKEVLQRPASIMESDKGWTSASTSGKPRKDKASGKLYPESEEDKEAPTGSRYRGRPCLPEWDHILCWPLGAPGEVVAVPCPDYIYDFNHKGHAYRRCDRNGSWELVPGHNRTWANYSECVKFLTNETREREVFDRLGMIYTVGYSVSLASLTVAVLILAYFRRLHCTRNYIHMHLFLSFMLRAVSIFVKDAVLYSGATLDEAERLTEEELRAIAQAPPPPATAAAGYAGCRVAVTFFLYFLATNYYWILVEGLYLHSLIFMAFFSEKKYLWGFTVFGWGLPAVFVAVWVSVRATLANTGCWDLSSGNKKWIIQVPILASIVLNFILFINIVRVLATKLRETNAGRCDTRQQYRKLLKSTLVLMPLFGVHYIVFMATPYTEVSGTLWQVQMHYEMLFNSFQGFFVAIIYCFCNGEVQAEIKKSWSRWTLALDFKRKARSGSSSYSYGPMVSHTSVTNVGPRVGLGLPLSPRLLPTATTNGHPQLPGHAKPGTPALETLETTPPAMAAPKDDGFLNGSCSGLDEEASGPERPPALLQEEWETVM

Cetrorelix (positive control) (peptide) showed an IC50 (nM), GnRHR calcium flux antagonistic assay [1] of 0.08 nM and a Max Activity % of positive control, GnRHR calcium flux antagonistic assay (% of positive control) [1] of 91.4.

Substance “HOE140 (a BKR2 antagonist), (D-Arg)-Arg-Pro-Hyp-Gly-Thi-Ser-(D-Tic)-Oic-Arg (peptide)” has an IC50 (nM), BDKRB2 arrestin antagonistic assay [2] of 132 nM and a Max Activity % of positive control, BDKRB2 arrestin antagonistic assay (% of positive control) [2] of 100.

Substance Melanotan II peptide (positive control) has an EC50 (nM), MC1R cAMP agonistic assay [3] of 0.56 nM, a Max Activity % of positive control, MC1R cAMP agonistic assay (% of positive control) [3] of 102 and an EC50 (nM), MC4R cAMP agonistic assay [4] of 2 nM. It also gave a Max Activity % of positive control, MC4R cAMP agonistic assay (% of positive control) [4] of 101.

Substance “PTH(1-34) peptide (positive control) (from UniProt P01270 32-65)” has an EC50 (nM), PTHR1 cAMP agonistic assay [5] of 0.8 nM and a Max Activity % of positive control, PTHR1 cAMP agonistic assay (% of positive control) [5] of 101.

Work on “SEQ ID NO:133, Pal-VGSNTY-NH2, nongel-forming peptide” yielded a Fluorescent Reading (average of duplicates) [6] of 71 and a Fluorescent Reading (average of duplicates) [7] of 55.4.

For “SEQ ID NO: 203, Pal-HSY-(D-Nal)-(D-Cpa)-(D-Pal)-SY-(D-Cit)-LRP-(D-Ala)-NH2, gel-forming GnRHR antagonist analog (peptide)”, the IC50 (nM), GnRHR calcium flux antagonistic assay [1] was less than 0.51 nM and the Max Activity % of positive control, GnRHR calcium flux antagonistic assay (% of positive control) [1] was 109.

“SEQ ID NO: 214, Pal-SSPHSY-miniPEG-(D-Phe)-(D-Phe)-Trp-(D-Arg), gel-forming kappa opioid receptor agonist (peptide)” was tested, and the EC50 (nM), OPRK1 cAMP agonistic assay [8] was 272 nM and the Max Activity % of positive control, OPRK1 cAMP agonistic assay (% of positive control) [8] was 62.

“SEQ ID NO: 224, Pal-HSYS-Nle-EH-(D-Phe)-RWGKPV-NH2, conjugated gel-forming Afamelanotide (melanotan I) analog (peptide)” showed an EC50 (nM), MC1R cAMP agonistic assay [3] of less than 0.05 nM and a Max Activity % of positive control, MC1R cAMP agonistic assay (% of positive control) [3] of 120.

In the case of “SEQ ID NO: 228, Pal-HSYRC-(D-Ala)-H-(D-Phe)-RWC-NH2, conjugated gel-forming setmelanotide analog (peptide)”, the EC50 (nM), MC4R cAMP agonistic assay [4] is reported as 0.15 nM and the Max Activity % of positive control, MC4R cAMP agonistic assay (% of positive control) [4] is reported as 115.

“SEQ ID NO: 234, Pal-HSY-(D-Arg)-Arg-Pro-Hyp-Gly-Thi-Ser-(D-Tic)-Oic-Arg-NH2, conjugated bradykinin receptor antagonist (peptide)” showed an IC50 (nM), BDKRB2 arrestin antagonistic assay [2] of 53.3 nM and a Max Activity % of positive control, BDKRB2 arrestin antagonistic assay (% of positive control) [2] of 112.

Source: patent US20200405868A1, “GEL-FORMING POLYPEPTIDES” (priority 2018, published 2020)
